# Reference: patent publication US9957297B2, “Template-fixed peptidomimetics as inhibitors of FPR1” (POLYPHOR AG, priority 2011, dated 2018)
# Bridges are numbered along the chain shown (N, C = ends). [ ]: non-standard residue; d: D form.
# T1: Formyl-Peptide Receptor 1 (UniProt P21462 1-350, limits assumed)
# T1 sequence (looked up): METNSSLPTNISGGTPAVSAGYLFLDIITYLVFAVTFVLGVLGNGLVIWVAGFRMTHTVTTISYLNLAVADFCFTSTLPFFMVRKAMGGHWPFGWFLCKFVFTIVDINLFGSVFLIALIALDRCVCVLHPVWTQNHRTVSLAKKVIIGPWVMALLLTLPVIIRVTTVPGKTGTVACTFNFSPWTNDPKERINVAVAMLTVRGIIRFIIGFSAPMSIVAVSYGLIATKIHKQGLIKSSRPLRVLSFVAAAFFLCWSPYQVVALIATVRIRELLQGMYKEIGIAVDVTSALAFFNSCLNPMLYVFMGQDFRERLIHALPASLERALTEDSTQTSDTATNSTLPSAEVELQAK
# B1: cyclo(-Tyr-His-Ala-Cys-His-Gly-^DPro-Trp-Thr-Ile-Cys-Tyr-Thr-Lys-^DPro-Pro-) (peptide)
# peptide: cyclo(YHACHG[dP]WTICYTK[dP]P)
# modifications: disulfide 4-11
# SMILES: CC[C@H](C)[C@@H]1NC(=O)[C@H]([C@@H](C)O)NC(=O)[C@H](Cc2c[nH]c3ccccc23)NC(=O)[C@H]2CCCN2C(=O)CNC(=O)[C@H](Cc2c[nH]cn2)NC(=O)[C@@H]2CSSC[C@H](NC1=O)C(=O)N[C@@H](Cc1ccc(O)cc1)C(=O)N[C@@H]([C@@H](C)O)C(=O)N[C@@H](CCCCN)C(=O)N1CCC[C@@H]1C(=O)N1CCC[C@H]1C(=O)N[C@@H](Cc1ccc(O)cc1)C(=O)N[C@@H](Cc1c[nH]cn1)C(=O)N[C@@H](C)C(=O)N2
# B2: cyclo(-Tyr-His-Ala-Cys-Phe-Gly-^DPro-Trp-Thr-Ile-Cys-Tyr-Gln-Lys-^DPro-Pro-) (peptide)
# peptide: cyclo(YHACFG[dP]WTICYQK[dP]P)
# modifications: disulfide 4-11
# SMILES: CC[C@H](C)[C@@H]1NC(=O)[C@H]([C@@H](C)O)NC(=O)[C@H](Cc2c[nH]c3ccccc23)NC(=O)[C@H]2CCCN2C(=O)CNC(=O)[C@H](Cc2ccccc2)NC(=O)[C@@H]2CSSC[C@H](NC1=O)C(=O)N[C@@H](Cc1ccc(O)cc1)C(=O)N[C@@H](CCC(N)=O)C(=O)N[C@@H](CCCCN)C(=O)N1CCC[C@@H]1C(=O)N1CCC[C@H]1C(=O)N[C@@H](Cc1ccc(O)cc1)C(=O)N[C@@H](Cc1c[nH]cn1)C(=O)N[C@@H](C)C(=O)N2
# B3: cyclo(-His-Tyr-Ala-Cys-Trp-Gly-^DPro-Trp-Thr-Ile-Cys-Tyr-Gln-Lys-^DPro-Pro-) (peptide)
# peptide: cyclo(HYACWG[dP]WTICYQK[dP]P)
# modifications: disulfide 4-11
# SMILES: CC[C@H](C)[C@@H]1NC(=O)[C@H]([C@@H](C)O)NC(=O)[C@H](Cc2c[nH]c3ccccc23)NC(=O)[C@H]2CCCN2C(=O)CNC(=O)[C@H](Cc2c[nH]c3ccccc23)NC(=O)[C@@H]2CSSC[C@H](NC1=O)C(=O)N[C@@H](Cc1ccc(O)cc1)C(=O)N[C@@H](CCC(N)=O)C(=O)N[C@@H](CCCCN)C(=O)N1CCC[C@@H]1C(=O)N1CCC[C@H]1C(=O)N[C@@H](Cc1c[nH]cn1)C(=O)N[C@@H](Cc1ccc(O)cc1)C(=O)N[C@@H](C)C(=O)N2
# B4: cyclo(-Lys-His-Ala-Cys-His-Gly-^DPro-Trp-Thr-Ile-Cys-Tyr-Gln-Lys-^DPro-Pro-) (peptide)
# peptide: cyclo(KHACHG[dP]WTICYQK[dP]P)
# modifications: disulfide 4-11
# SMILES: CC[C@H](C)[C@@H]1NC(=O)[C@H]([C@@H](C)O)NC(=O)[C@H](Cc2c[nH]c3ccccc23)NC(=O)[C@H]2CCCN2C(=O)CNC(=O)[C@H](Cc2c[nH]cn2)NC(=O)[C@@H]2CSSC[C@H](NC1=O)C(=O)N[C@@H](Cc1ccc(O)cc1)C(=O)N[C@@H](CCC(N)=O)C(=O)N[C@@H](CCCCN)C(=O)N1CCC[C@@H]1C(=O)N1CCC[C@H]1C(=O)N[C@@H](CCCCN)C(=O)N[C@@H](Cc1c[nH]cn1)C(=O)N[C@@H](C)C(=O)N2
# B5: cyclo(-Tyr-His-Ala-Cys-His-Gly-^DPro-Trp-Thr-Ile-Cys-Tyr-Glu-Lys-^DPro-Pro-) (peptide)
# peptide: cyclo(YHACHG[dP]WTICYEK[dP]P)
# modifications: disulfide 4-11
# SMILES: CC[C@H](C)[C@@H]1NC(=O)[C@H]([C@@H](C)O)NC(=O)[C@H](Cc2c[nH]c3ccccc23)NC(=O)[C@H]2CCCN2C(=O)CNC(=O)[C@H](Cc2c[nH]cn2)NC(=O)[C@@H]2CSSC[C@H](NC1=O)C(=O)N[C@@H](Cc1ccc(O)cc1)C(=O)N[C@@H](CCC(=O)O)C(=O)N[C@@H](CCCCN)C(=O)N1CCC[C@@H]1C(=O)N1CCC[C@H]1C(=O)N[C@@H](Cc1ccc(O)cc1)C(=O)N[C@@H](Cc1c[nH]cn1)C(=O)N[C@@H](C)C(=O)N2
# B6: cyclo(-Tyr-His-Ala-Cys-Trp-Gly-^DAla-Trp-Thr-Ile-Cys-Tyr-Gln-Lys-^DPro-Pro-) (peptide)
# peptide: cyclo(YHACWG[dA]WTICYQK[dP]P)
# modifications: disulfide 4-11
# SMILES: CC[C@H](C)[C@@H]1NC(=O)[C@H]([C@@H](C)O)NC(=O)[C@H](Cc2c[nH]c3ccccc23)NC(=O)[C@@H](C)NC(=O)CNC(=O)[C@H](Cc2c[nH]c3ccccc23)NC(=O)[C@@H]2CSSC[C@H](NC1=O)C(=O)N[C@@H](Cc1ccc(O)cc1)C(=O)N[C@@H](CCC(N)=O)C(=O)N[C@@H](CCCCN)C(=O)N1CCC[C@@H]1C(=O)N1CCC[C@H]1C(=O)N[C@@H](Cc1ccc(O)cc1)C(=O)N[C@@H](Cc1c[nH]cn1)C(=O)N[C@@H](C)C(=O)N2
# B7: cyclo(-Tyr-His-Ala-Cys-Tyr-Gly-^DPro-Trp-Thr-Ile-Cys-Tyr-Gln-Lys-^DPro-Pro-) (peptide)
# peptide: cyclo(YHACYG[dP]WTICYQK[dP]P)
# modifications: disulfide 4-11
# SMILES: CC[C@H](C)[C@@H]1NC(=O)[C@H]([C@@H](C)O)NC(=O)[C@H](Cc2c[nH]c3ccccc23)NC(=O)[C@H]2CCCN2C(=O)CNC(=O)[C@H](Cc2ccc(O)cc2)NC(=O)[C@@H]2CSSC[C@H](NC1=O)C(=O)N[C@@H](Cc1ccc(O)cc1)C(=O)N[C@@H](CCC(N)=O)C(=O)N[C@@H](CCCCN)C(=O)N1CCC[C@@H]1C(=O)N1CCC[C@H]1C(=O)N[C@@H](Cc1ccc(O)cc1)C(=O)N[C@@H](Cc1c[nH]cn1)C(=O)N[C@@H](C)C(=O)N2
# B8: cyclo(-Tyr-His-Lys-Cys-His-Gly-^DPro-Trp-Thr-Ile-Cys-Tyr-Glu-Lys-^DPro-Glu-) (peptide)
# peptide: cyclo(YHKCHG[dP]WTICYEK[dP]E)
# modifications: disulfide 4-11
# SMILES: CC[C@H](C)[C@@H]1NC(=O)[C@H]([C@@H](C)O)NC(=O)[C@H](Cc2c[nH]c3ccccc23)NC(=O)[C@H]2CCCN2C(=O)CNC(=O)[C@H](Cc2c[nH]cn2)NC(=O)[C@@H]2CSSC[C@H](NC1=O)C(=O)N[C@@H](Cc1ccc(O)cc1)C(=O)N[C@@H](CCC(=O)O)C(=O)N[C@@H](CCCCN)C(=O)N1CCC[C@@H]1C(=O)N[C@@H](CCC(=O)O)C(=O)N[C@@H](Cc1ccc(O)cc1)C(=O)N[C@@H](Cc1c[nH]cn1)C(=O)N[C@@H](CCCCN)C(=O)N2
# B9: cyclo(-Tyr-His-Ala-Cys-Trp-Gly-^DPro-Trp-Thr-Ile-Cys-Tyr-Ala-Lys-^DPro-Pro-) (peptide)
# peptide: cyclo(YHACWG[dP]WTICYAK[dP]P)
# modifications: disulfide 4-11
# SMILES: CC[C@H](C)[C@@H]1NC(=O)[C@H]([C@@H](C)O)NC(=O)[C@H](Cc2c[nH]c3ccccc23)NC(=O)[C@H]2CCCN2C(=O)CNC(=O)[C@H](Cc2c[nH]c3ccccc23)NC(=O)[C@@H]2CSSC[C@H](NC1=O)C(=O)N[C@@H](Cc1ccc(O)cc1)C(=O)N[C@@H](C)C(=O)N[C@@H](CCCCN)C(=O)N1CCC[C@@H]1C(=O)N1CCC[C@H]1C(=O)N[C@@H](Cc1ccc(O)cc1)C(=O)N[C@@H](Cc1c[nH]cn1)C(=O)N[C@@H](C)C(=O)N2
# B10: cyclo(-Tyr-His-Ala-Cys-Trp-Gly-^DPro-Trp-Thr-Ile-Cys-Tyr-Thr-Lys-^DPro-Pro-) (peptide)
# peptide: cyclo(YHACWG[dP]WTICYTK[dP]P)
# modifications: disulfide 4-11
# SMILES: CC[C@H](C)[C@@H]1NC(=O)[C@H]([C@@H](C)O)NC(=O)[C@H](Cc2c[nH]c3ccccc23)NC(=O)[C@H]2CCCN2C(=O)CNC(=O)[C@H](Cc2c[nH]c3ccccc23)NC(=O)[C@@H]2CSSC[C@H](NC1=O)C(=O)N[C@@H](Cc1ccc(O)cc1)C(=O)N[C@@H]([C@@H](C)O)C(=O)N[C@@H](CCCCN)C(=O)N1CCC[C@@H]1C(=O)N1CCC[C@H]1C(=O)N[C@@H](Cc1ccc(O)cc1)C(=O)N[C@@H](Cc1c[nH]cn1)C(=O)N[C@@H](C)C(=O)N2
# B11: cyclo(-Glu-His-Ala-Cys-Trp-Gly-^DPro-Trp-Thr-Ile-Cys-Tyr-Gln-Lys-^DPro-Pro-) (peptide)
# peptide: cyclo(EHACWG[dP]WTICYQK[dP]P)
# modifications: disulfide 4-11
# SMILES: CC[C@H](C)[C@@H]1NC(=O)[C@H]([C@@H](C)O)NC(=O)[C@H](Cc2c[nH]c3ccccc23)NC(=O)[C@H]2CCCN2C(=O)CNC(=O)[C@H](Cc2c[nH]c3ccccc23)NC(=O)[C@@H]2CSSC[C@H](NC1=O)C(=O)N[C@@H](Cc1ccc(O)cc1)C(=O)N[C@@H](CCC(N)=O)C(=O)N[C@@H](CCCCN)C(=O)N1CCC[C@@H]1C(=O)N1CCC[C@H]1C(=O)N[C@@H](CCC(=O)O)C(=O)N[C@@H](Cc1c[nH]cn1)C(=O)N[C@@H](C)C(=O)N2
# B12: cyclo(-Thr-His-Ala-Cys-Trp-Gly-^DPro-Trp-Thr-Ile-Cys-Tyr-Gln-Lys-^DPro-Pro-) (peptide)
# peptide: cyclo(THACWG[dP]WTICYQK[dP]P)
# modifications: disulfide 4-11
# SMILES: CC[C@H](C)[C@@H]1NC(=O)[C@H]([C@@H](C)O)NC(=O)[C@H](Cc2c[nH]c3ccccc23)NC(=O)[C@H]2CCCN2C(=O)CNC(=O)[C@H](Cc2c[nH]c3ccccc23)NC(=O)[C@@H]2CSSC[C@H](NC1=O)C(=O)N[C@@H](Cc1ccc(O)cc1)C(=O)N[C@@H](CCC(N)=O)C(=O)N[C@@H](CCCCN)C(=O)N1CCC[C@@H]1C(=O)N1CCC[C@H]1C(=O)N[C@@H]([C@@H](C)O)C(=O)N[C@@H](Cc1c[nH]cn1)C(=O)N[C@@H](C)C(=O)N2
# B13: cyclo(-His-His-Ala-Cys-Trp-Gly-^DPro-Trp-Thr-Ile-Cys-Tyr-Gln-Lys-^DPro-Pro-) (peptide)
# peptide: cyclo(HHACWG[dP]WTICYQK[dP]P)
# modifications: disulfide 4-11
# SMILES: CC[C@H](C)[C@@H]1NC(=O)[C@H]([C@@H](C)O)NC(=O)[C@H](Cc2c[nH]c3ccccc23)NC(=O)[C@H]2CCCN2C(=O)CNC(=O)[C@H](Cc2c[nH]c3ccccc23)NC(=O)[C@@H]2CSSC[C@H](NC1=O)C(=O)N[C@@H](Cc1ccc(O)cc1)C(=O)N[C@@H](CCC(N)=O)C(=O)N[C@@H](CCCCN)C(=O)N1CCC[C@@H]1C(=O)N1CCC[C@H]1C(=O)N[C@@H](Cc1c[nH]cn1)C(=O)N[C@@H](Cc1c[nH]cn1)C(=O)N[C@@H](C)C(=O)N2
# B14: cyclo(-Ala-His-Ala-Cys-Trp-Gly-^DPro-Trp-Thr-Ile-Cys-Tyr-Gln-Lys-^DPro-Pro-) (peptide)
# peptide: cyclo(AHACWG[dP]WTICYQK[dP]P)
# modifications: disulfide 4-11
# SMILES: CC[C@H](C)[C@@H]1NC(=O)[C@H]([C@@H](C)O)NC(=O)[C@H](Cc2c[nH]c3ccccc23)NC(=O)[C@H]2CCCN2C(=O)CNC(=O)[C@H](Cc2c[nH]c3ccccc23)NC(=O)[C@@H]2CSSC[C@H](NC1=O)C(=O)N[C@@H](Cc1ccc(O)cc1)C(=O)N[C@@H](CCC(N)=O)C(=O)N[C@@H](CCCCN)C(=O)N1CCC[C@@H]1C(=O)N1CCC[C@H]1C(=O)N[C@@H](C)C(=O)N[C@@H](Cc1c[nH]cn1)C(=O)N[C@@H](C)C(=O)N2
# Molecular target: T1, Formyl-Peptide Receptor 1
# Assay: cell-based or functional assay
row,Binder,β-Arrestin IC50 [nM]
1,B1,598
2,B2,166
3,B3,735
4,B4,590
5,B5,189
6,B6,213
7,B7,184
8,B8,169
9,B9,278
10,B10,202
11,B11,131
12,B12,294
13,B13,342
14,B14,404
